Experiment: soluble on expression in E. coli; label from the status in PepcDB or PDB records

Soluble on expression in E. coli, not soluble:
MGSDKIHHHHHHMKAISNDKPQGVCATDFASVLGEENAVCLWENIEIGQQKRIQQAVTSGKPPTCIVYPRTQQQLAAVIAKAYSHNWRVLPCGSGSKLSWGGLAKGVDVVVGTERINQLIEHAVGDLTVTVEAGMKFSDLQALLAKSRQFLALDPTAPQSATIGGIVATGDTGSLRQRYGSVRDQLLGVTFVRADGEIAKAGGRVVKNVAGYDLMKLLTGSYGTLGFISQLTFRVYPLSEASGTVVLTGSAEAVSQAADILRGSALTPVQADLLSTKLVSSLGLGEGLGLIARFQSISESVKEQSNRVLEVGQKLGLDGAIFADADEASLWQRLQERIHSTATESVITCKIGVLPTAAVDILTQVGLGLIHISSGLGLLQLEDKNQVLKVREQLRSAGSDGTQANSGFLTILEAPMAVKEQVDVWGYNGNALPLMRRIKEQFDSKNILSPGRFVGGI, MGSDKIHHHHHHMKAPLVSIIIPVWNLWELTCACLDSIRAHTPGNAVEVIVVDNGSDDTTATALAPTGEGLFGARFRRIRLETNRGFAVACNLGAAKAQGTYLLLLNNDTVLSPGWLPPLLREFDDEPRTGAAGPLLVYPDSGRVQHCGIAFAPTLQTEHLYANFPATHPAVRARRTLQAITGAAMLLPTALFRQCGGFHEGYKNGCEDLELCCRIREQGLRLAVVPESLVAHHESRTPGRKEHDAANATLLNRRCSGCFGPDLHRHALRDGFAIALTPWLDTYLTLPPGREAALTREHITDFDPGRCWETLQGEPLWHGGYEMLCSILDEAGRHAESAGVRLLQAGFFPTLPGFRQLARSAALSGNDELARQAAEKMQHIGGILEDPEPLVTRARGLVRWARRAGEPAVEALYTGWLTDIGLSADD, MGSDKIHHHHHHMKDGQMLTEWPSHLPWLNQSQNDFTFPSDTYLLLYFWSMSCPNCHQFTDKVLQDIKDMNVKVIGVHVPYIEEEKSMEVVLTYALDRGLAIPIVLDQNYEIVTTCHVQGIPSFCLLSQYGQIITKTMGDVSWDKMLKKIAGL, MGSDKIHHHHHHMKDINMTVEKGQVAGILGITGCGKTTLLKLLYNGLKNGDRRLIWKGGNYVDAIGRARPNAVYVPQSAPDSLDPVYSVIDQIRKVMQARSVDFDQDLLEKIMSEIGRSPDMLKKKPQALSQGERHIAVVIMALMIRPSLIMMDEPTTSLDAIETLDLLGIIRRFSVQYGISFIISGTSPEVITYASDFVHVMYCGTFVESSQTEDLISNPLHPYTRMIMKMRPSIRTKDLVLDRFIYDCNDYGCPFLNYCEYARDECRSQVSIRRYNDRAGQVRSLAEIMLSAKHVYKTYLEKVSIFKWHENKVIEDFSYDFLSGTRYGIIGVSGSGKTTLASILAGYDRPDSGSIIYSKHPSDGSSIRVRNVFQDTYRFLNPVNTLEWYEKNISAISPDPKLIDKILDAVGLPLERFGSLYIDQLSGGQRQRLAFAMVLSQLPDVLILDEPFSMIDPPNAMVLFSLIRKYLDKSTVIYIDHNIDRVAYLCDHIIAFDKGRIVEEDDVKKIFETQKTEYVEKLIWASEKISSRMKRQP, MGSDKIHHHHHHMKDLLNAFENKAPEIVFEWHDAETDATGWAVINSLRGGAAGGGTRMRKGLDKHEVVSLAKTMEIKFAVSGPHIGGAKSGINFDPADPRKNDVLNRWYKAVMPLLKSYYGTGGDLNVCEIKDVIPNTEEYGLWHPQEGIVNGHFHPSEELRIQKICQLRGGVTMPVVNPAYTPDPAKKYLVADLITGFGVSESVRHYYEIKGDSVAGKRVIVQGWGNVGGTAAYYLAANGAKVVGIIDRAAGLVSTEGLTFEQVKELLAKRVGNTLTGDNLLSAEDTQKLVWSVGADVFLPCAASRLVTREQVATLKDNGLGLIACGANVPFRDDNIFYGPTAEYADGVVDVIPDFIANCGMARAFNYLMSSKVDLDESAIFQDVSEVIRNALTESCAAATGKNHLLAASLKTVLHKLMH, MGSDKIHHHHHHMKDLSSIVAKFNTQGTITEIKPLGAGLINDTYKVNTQEADAPDYVLQRINHAIFQNVEMLQSNIAAVTGHIRKKLTEAGEADIDRKVLSFLATEEGKTYWFDGESYWRVMVFIPRAKTYETVNPEYSNYAGEAFGNFQAMLADIPETLGETIPDFHNMEFRLKQLRDAVAANAAGRVAEVQYYLDEIEKRADEMCKAERLFREGKLPKRVCHCDTKVNNMMFDEDGKVLCVIDLDTVMPSFIFSDYGDFLRTGANTGDEDDKDLNRVNFNMEIFKAFTKGYLKGAKSFLTPIEIENLPYAAALFPYMQCVRFLADYINGDTYYKIKYPEHNLVRTKAQFKLLQSVEEHTPEMVAFINECLVNG, MGSDKIHHHHHHMKDLVYLNYAATSYKKFPATIEALTAYLAENQFMNYGRNAPLLREGLPLLETRQLLADFFQAPSAAQITFTNNATTSLNLALAGILQPGDHVITTMLEHHAVARPLHLLEKERGISVTYVACQKTGLLEVEDIQRAWRTNTKALVMTHASNVLGTILPIEECFQWAQQKGLLTILDAAQTAGFLPIKMTQMAIDVLAFTGHKSLYGLAGIGGLAFSERGAEAVKPLMAGGTGSHSNSFDQPSFLPDKFEAGTLNSLGILSLNSSIKELNKIGLAAIQKHERTLMQNFLNGLSGLPVTILGTKDVAQTVPVVSITLWNQEETIVAQQLAEQYGIMTRAGLHCAPLAHQTAGTLATGTLRFSFGWQTTPEEITWTIHALQELLI, MGSDKIHHHHHHMKDNKINILFLSWRDIKCPKSGGAEVFTHEMLKRLDFNKYDITHFSPTFEGAKEKEIIDNVTYIRRGNILSVISEAKKYYKTNKDEIDFVVDQCNTHKFFTPLWVPKKKRIFFIHQLTREIWHINARFPISTLGYLFETPTLRLYKNDYTITVSDSTKKDLIDIGFDRDKVTIFPEGINFKPWDKDSLLKEKDNIFGYIGRFVNYKGIDAAVKAYCILKKDYPNSKLWIIGKKKDDYIEKVLLPILKENNITYGNRGQNRDITFWGFVSEKEKLSLMSKMKALLFPSIREGFGLTVIEAGAVGTPTVVYNSKGLVDAVDKGKAGYLCEENTPENLYYFMKNILENENEYGLKRKNAHDFSLKFNWDSTSKYFDDFINKLNEKSLKK, MGSDKIHHHHHHMKDSDILMLAEEGESTSEASARKKALLLGRQLGLASEQEYRPANASIAERAQHRARKLSSQYQANVETIFALALSYTPSDVTGVDLDPDWSHQFFLMAEQIHNRRMQDLWARILSSEIVNPGNFSLRTLALLKQLTHREAQILEKALGMAAKVNSEQRLKLISGYRLSGGIGQYFRKTTSVNLGLSQFGLPYSSILTLVDAGILHSSEFETGLLNNKTPIQFALQGIQMKLTPKSGNLLFSYYRFTPIGDELAQLVQPKPDQEYLKALQLLFAKDFKIE, MGSDKIHHHHHHMKDWWQATFPNGRQTLIITDAKGYPVEISYGEKGKGKPLILLHGMGSWSYNWRHSVTELSKYFRVICFDAKGFGFSEKPLSRREHNGHQVIEFQRIIQALCDEPAVIVAESLGGLVALALAQENPQLIGQLVVVNVPVFAKRLPHWAMGLLAQTPLEIIQTIDSLRLAYFFAPLLREIMAIERRGVLFDPSILTKEDVYWITYPFIEFPGTLVKVAEELQIAAREIENWQADKPNMLTKIQNKLSIIKCPTLVLWGDQDSWFPATHGEKLHQHIPNSKLKILSNCYHDASTGASKELNAAILEFLRDGNTVLRSLDS, MGSDKIHHHHHHMKESMSITSSTYASALLTLPWGTPLEQWPDNLIAALPRGISRHIVRFVGINRGIVAVKEIGARTAHHEYKMLRELQRLGAPSVRPVAVITGRHPAEEDYGELTAALVTEHLEFSLPYREIFSRHLTVVESEKLIRALSVLLVRMHLLNFYWGDVSLSNTLFRRDAETYSAYLVDAETGEFQPNLSESRRLYDVDIARVNIIGELMDLQAGECLDKSIDVIALGGLVESSYLELWTELTAEESVDASEYWRLSERIDRLNQLGFDVGELKVTKDDSRQVVRIRPVVVDPGHYRAELLSLTGLSVEEHQAQRLLGSIQAYQAVECGPHVGLTQAAHLWMTNEYEPTIAAVPVEMLDKLEPAQIFHEIVDHRWFLAQERGGAVTLPEATASYLESVLPARRDEARLLSTNPSDEDLS, MGSDKIHHHHHHMKEYDKLSIRLVQILSKFNNGESLSAQELAQEFNVDTRTIQRDLNERLTFMPIKKENGRYVLESFALGKLSFKDIQNFATLSGIAELYPKLDQGFIVDLLSHRVNKVLMVKNEGFQKVDYELFKDLSVAILKHNVLNFFYKEKERQIKPYKLVNYKGIWYLLGDENDKLKHFNLDKISKLRTKNENFIPNEKLEEQIQNDPNIWLGESKEVILKLDKNAKEYFFRKEILSNYQIIDKDETSYTLSTQVSYEDEILHLVKQWIPYIKILAPIELKIRLEDILKSYLNNLSK, MGSDKIHHHHHHMKFFNREKEINKILSIIEGEPNNIYFIYGSLNSGKSTLMREIVVNRLDISKYIPFFIDFRTRNILNVDNFIECLFEVDEKSEIDDFREYAKSLADLLVKGSEEISKYYLGMPIKIPKPFFDKIFNKKDKSADVYQYIEYLFAKLNEKGKKPILIFDELQMIKEITLNGNRKLLWSLFQFLVALTKVQHLCHVFCLSSDSLFIEYVYKTGELEGRADYILVDDFDKQTALKFIDFLAKEILNKKLPKDEKELIYSYVGGKPVLIIKVIDKLRYENLNDILDFMLKDATQKLKYFLNDLDYIKPKVEVGDEVIELKKEDIVKALKLFKDSYEISDSEVAKPIYVYLVKKNILFLNPIEGILKPQSFLIWNAIKRLL, MGSDKIHHHHHHMKFNEFLNNLSNYEPGKDIEVIAKEYGVKEVIKLASNENPFGTPPKAIECLRQNANKAHLYPDDSMIELKSTLAQKYKVQNENIIIGAGSDQVIEFAIHSKLNSKNAFLQAGVTFAMYEIYAKQCGAKCYKTQSITHNLDEFKKLYETHKDEIKLIFLCLPNNPLGECLDASEATEFIKGVNEDCLVVIDAAYNEFASFKDSKKHLEPCELIKEFDNVLYLGTFSKLYGLGGLRIGYGIANANIISAFYKLRAPFNVSNLALKAAVAAMDDDEFTEKTLENNFSQMELYKEFAKKHNIKIIDSYTNFITYFFDEKNSTDLSEKLLKKGIIIRNLKSYGLNAIRITIGTSYENEKFFTEFDKILR, MGSDKIHHHHHHMKHAFETLVGEVHAALQAGEQFTLGYSAEQSQFVRFNHAKVRQAGEVSQASAQLRLVRDGRQAEQQVTLSGDVQLDRQRLNVALEQLRQTLPLLALDPYLRLDENAWHSHSLQEPPLPALNEVLALLEREAGDLDLVGIYAAGPVCRGFASSFGAFGWHQANSFNVDWSLFHDNGQAVKANYAGQAWSADDFTARLRQAREQLGFLGRPAVTLKPGTYRAYLAPAAMDEVAGMLCWGGFSAQALATGNSALQRLYNGDARLSPLVSFTEQVSGSLSPAFSDEGAPRLDVPLIQQGEARQRLISARSAAEFELQANGADGYESPCALSLAPGNLASAQILERLGTGLYISNLWYLNYSDLPAARMTGLTRFATFWVEDGQIQGPVSTMRFDDSLYSLLGSQLEDLTQEREMILSTSTYGQRSTGSSHLPGALVKGLTLTL, MGSDKIHHHHHHMKHYEAYGIATRNTKIQGQFYRLADEEVFIHHFEPLQKNNDIILLLHGYMDHSLTSARLINRLISEGFEVVALDWPGHGLSKGETYHIRSFRQYNTIFLQLVQDMIERWGSDRIHLIAHSTGAGVVLDGLTNNLKKMPTGGIVLTSPLIKLPSHRIGKLFLPFVRKWRKQVRRIYRTNSSDPLFMKAIEEDPLQHEVIPLTWFDAYLQWHEDMRRRAKCSAENVTILQGTRDTTVHWKANMKWLAETLPSAERILIDGGGHHLWNEGDLIRELVFRFILKRLKKT, MGSDKIHHHHHHMKIAFDVDVIKDLGITRMVHQVAEWGYKYIEQSPHPQINPFYKHPRASREIMAEYKQALRDTGLELSSFICVYRWSGPDELRRQAAVKNWKRLVEIAVEMGVQVINTEFSGDPNQPEICDEMFYRSMEELLPIFEREGIRVEIQAHPWDFCEENNETVDIVKSFRSDNVKYVYSVPHTFFYDKGVGDVASMLRYAGSDLSHVLIADTRNHTKHCRYIVNPPGVDAVVHQHVGVGEGDVDFDALFRTLREMKFAEQTFKVGGAPIVATSLFGYPEKMKYQAVETRELIERELLRR
